Each sequence was assayed on Escherichia coli TOP10 (assay: shrunken log2 fold change of peptide-encoding DNA abundance (4.5 h post-induction vs induction); higher = less antimicrobial activity (less host growth inhibition)). Conditions: time post-induction: 4.5 h; library: site-saturation at positions 5, 18, 19, 20.
For RRIRPRPPRLPRPRPRPLLIPRP, the “shrunken log2 fold change” value was -0.758.
RRIRIRPPRLPRPRPRPTTQPRP was tested, and the “shrunken log2 fold change” value was 0.102.
In the case of RRIRARPPRLPRPRPRPWGHPRP, the “shrunken log2 fold change” value was 0.0337.
In the case of RRIRKRPPRLPRPRPRPYFPPRP, the “shrunken log2 fold change” value was -0.348.
For RRIRPRPPRLPRPRPRPKQPPRP, the “shrunken log2 fold change” value was 0.0475.
In the case of RRIRARPPRLPRPRPRPKSSPRP, the “shrunken log2 fold change” value was 0.188.
For RRIRLRPPRLPRPRPRPFWTPRP, the “shrunken log2 fold change” value was 0.0168.
For RRIRGRPPRLPRPRPRPKYYPRP, the “shrunken log2 fold change” value was 0.0864.
In the case of RRIRDRPPRLPRPRPRPRSYPRP, the “shrunken log2 fold change” value was -0.0236.
In the case of RRIRERPPRLPRPRPRPDCYPRP, the “shrunken log2 fold change” value was -0.0856.
RRIRIRPPRLPRPRPRPSQPPRP was tested, and the “shrunken log2 fold change” value was 0.101.
In the case of RRIRYRPPRLPRPRPRPFDFPRP, the “shrunken log2 fold change” value was -0.409.
In the case of RRIRFRPPRLPRPRPRPDQEPRP, the “shrunken log2 fold change” value was -0.0176.
RRIRNRPPRLPRPRPRPNCRPRP was tested, and the “shrunken log2 fold change” value was -0.0373.
For RRIRERPPRLPRPRPRPGSSPRP, the “shrunken log2 fold change” value was -0.331.
For RRIRARPPRLPRPRPRPYGLPRP, the “shrunken log2 fold change” value was 0.0316.
For RRIRNRPPRLPRPRPRPGLNPRP, the “shrunken log2 fold change” value was 0.035.
For RRIRNRPPRLPRPRPRPKMQPRP, the “shrunken log2 fold change” value was -0.0708.
For RRIRPRPPRLPRPRPRPFSEPRP, the “shrunken log2 fold change” value was -0.436.
In the case of RRIRSRPPRLPRPRPRPDRRPRP, the “shrunken log2 fold change” value was -0.0434.
With RRIRQRPPRLPRPRPRPSQVPRP the “shrunken log2 fold change” value was -0.23.
In the case of RRIRFRPPRLPRPRPRPPTQPRP, the “shrunken log2 fold change” value was 0.327.
RRIRTRPPRLPRPRPRPLLPPRP was tested, and the “shrunken log2 fold change” value was 0.112.
RRIRARPPRLPRPRPRPFIFPRP was tested, and the “shrunken log2 fold change” value was 0.419.
In the case of RRIRIRPPRLPRPRPRPKECPRP, the “shrunken log2 fold change” value was 0.00902.
For RRIRLRPPRLPRPRPRPHYDPRP, the “shrunken log2 fold change” value was -0.0502.
In the case of RRIRWRPPRLPRPRPRPNDMPRP, the “shrunken log2 fold change” value was 0.199.
For RRIRSRPPRLPRPRPRPVGAPRP, the “shrunken log2 fold change” value was 0.538.
RRIRNRPPRLPRPRPRPESRPRP was tested, and the “shrunken log2 fold change” value was 0.114.
In the case of RRIRHRPPRLPRPRPRPNYRPRP, the “shrunken log2 fold change” value was -0.103.
RRIRSRPPRLPRPRPRPFGDPRP was tested, and the “shrunken log2 fold change” value was -0.0872.
With RRIRNRPPRLPRPRPRPDFQPRP the “shrunken log2 fold change” value was -0.156.
RRIRERPPRLPRPRPRPPKYPRP was tested, and the “shrunken log2 fold change” value was -0.294.
In the case of RRIRRRPPRLPRPRPRPTPWPRP, the “shrunken log2 fold change” value was 0.841.
With RRIRSRPPRLPRPRPRPHIGPRP the “shrunken log2 fold change” value was -0.0154.
RRIRVRPPRLPRPRPRPTTDPRP was tested, and the “shrunken log2 fold change” value was -0.0625.
For RRIRHRPPRLPRPRPRPKYWPRP, the “shrunken log2 fold change” value was -0.2.
For RRIRFRPPRLPRPRPRPEKQPRP, the “shrunken log2 fold change” value was -0.0262.
With RRIRLRPPRLPRPRPRPKRVPRP the “shrunken log2 fold change” value was -0.116.
For RRIRCRPPRLPRPRPRPHWVPRP, the “shrunken log2 fold change” value was -0.0374.
In the case of RRIRWRPPRLPRPRPRPRGRPRP, the “shrunken log2 fold change” value was 0.704.
For RRIRLRPPRLPRPRPRPWFYPRP, the “shrunken log2 fold change” value was -0.785.
For RRIRARPPRLPRPRPRPELLPRP, the “shrunken log2 fold change” value was 0.961.
With RRIRDRPPRLPRPRPRPEQVPRP the “shrunken log2 fold change” value was 0.015.
In the case of RRIRRRPPRLPRPRPRPQYSPRP, the “shrunken log2 fold change” value was -0.108.
For RRIRPRPPRLPRPRPRPNEPPRP, the “shrunken log2 fold change” value was 0.146.
With RRIRGRPPRLPRPRPRPYFFPRP the “shrunken log2 fold change” value was 0.0463.
RRIRCRPPRLPRPRPRPVPKPRP was tested, and the “shrunken log2 fold change” value was 0.339.
With RRIRERPPRLPRPRPRPRLHPRP the “shrunken log2 fold change” value was 0.047.
With RRIRCRPPRLPRPRPRPWAFPRP the “shrunken log2 fold change” value was -0.0432.
With RRIRLRPPRLPRPRPRPQLNPRP the “shrunken log2 fold change” value was -0.214.
With RRIRVRPPRLPRPRPRPRNVPRP the “shrunken log2 fold change” value was -0.192.
In the case of RRIRIRPPRLPRPRPRPGQKPRP, the “shrunken log2 fold change” value was -0.0432.
For RRIRLRPPRLPRPRPRPAGQPRP, the “shrunken log2 fold change” value was -0.0451.
RRIRHRPPRLPRPRPRPYNKPRP was tested, and the “shrunken log2 fold change” value was -0.681.
RRIRMRPPRLPRPRPRPYTEPRP was tested, and the “shrunken log2 fold change” value was -0.245.
For RRIRCRPPRLPRPRPRPDEAPRP, the “shrunken log2 fold change” value was 0.262.
With RRIRPRPPRLPRPRPRPCALPRP the “shrunken log2 fold change” value was -0.0401.
With RRIRRRPPRLPRPRPRPCSTPRP the “shrunken log2 fold change” value was 0.0875.
With RRIRERPPRLPRPRPRPACRPRP the “shrunken log2 fold change” value was 0.392.
RRIRKRPPRLPRPRPRPPSGPRP was tested, and the “shrunken log2 fold change” value was 1.1.
RRIRNRPPRLPRPRPRPILNPRP was tested, and the “shrunken log2 fold change” value was -0.353.
With RRIRCRPPRLPRPRPRPEERPRP the “shrunken log2 fold change” value was -0.0298.
In the case of RRIRLRPPRLPRPRPRPSPLPRP, the “shrunken log2 fold change” value was -0.192.
In the case of RRIRLRPPRLPRPRPRPHTSPRP, the “shrunken log2 fold change” value was -0.112.
RRIRFRPPRLPRPRPRPWWKPRP was tested, and the “shrunken log2 fold change” value was 0.0472.
RRIRIRPPRLPRPRPRPDHWPRP was tested, and the “shrunken log2 fold change” value was 0.0629.
In the case of RRIRQRPPRLPRPRPRPETQPRP, the “shrunken log2 fold change” value was 0.0133.
RRIRVRPPRLPRPRPRPHPFPRP was tested, and the “shrunken log2 fold change” value was -0.0878.
With RRIRNRPPRLPRPRPRPAIWPRP the “shrunken log2 fold change” value was 0.13.
RRIRQRPPRLPRPRPRPKKGPRP was tested, and the “shrunken log2 fold change” value was 0.124.
RRIRRRPPRLPRPRPRPSNMPRP was tested, and the “shrunken log2 fold change” value was -0.311.
RRIRKRPPRLPRPRPRPRRLPRP was tested, and the “shrunken log2 fold change” value was 0.0159.
For RRIRWRPPRLPRPRPRPQNTPRP, the “shrunken log2 fold change” value was 0.591.
In the case of RRIRCRPPRLPRPRPRPKSFPRP, the “shrunken log2 fold change” value was -0.288.
In the case of RRIRYRPPRLPRPRPRPFNPPRP, the “shrunken log2 fold change” value was -0.0161.
For RRIRQRPPRLPRPRPRPLICPRP, the “shrunken log2 fold change” value was -0.0973.
For RRIRNRPPRLPRPRPRPDMMPRP, the “shrunken log2 fold change” value was -0.233.
For RRIRWRPPRLPRPRPRPTIDPRP, the “shrunken log2 fold change” value was -0.0862.
For RRIRFRPPRLPRPRPRPMPRPRP, the “shrunken log2 fold change” value was 0.513.
With RRIRNRPPRLPRPRPRPPHNPRP the “shrunken log2 fold change” value was 0.216.
With RRIRHRPPRLPRPRPRPQVLPRP the “shrunken log2 fold change” value was -0.0535.
RRIRIRPPRLPRPRPRPKHHPRP was tested, and the “shrunken log2 fold change” value was -0.366.
In the case of RRIRWRPPRLPRPRPRPAHPPRP, the “shrunken log2 fold change” value was 0.304.
With RRIRRRPPRLPRPRPRPWAYPRP the “shrunken log2 fold change” value was -0.0717.
RRIRMRPPRLPRPRPRPLTYPRP was tested, and the “shrunken log2 fold change” value was -0.0782.
With RRIRCRPPRLPRPRPRPIQGPRP the “shrunken log2 fold change” value was -0.0195.
For RRIRTRPPRLPRPRPRPGAIPRP, the “shrunken log2 fold change” value was -0.0669.
RRIRMRPPRLPRPRPRPCFMPRP was tested, and the “shrunken log2 fold change” value was -0.136.
With RRIRARPPRLPRPRPRPEDGPRP the “shrunken log2 fold change” value was 1.48.
RRIRNRPPRLPRPRPRPHHNPRP was tested, and the “shrunken log2 fold change” value was -0.869.
For RRIRARPPRLPRPRPRPRVRPRP, the “shrunken log2 fold change” value was 0.567.
With RRIRSRPPRLPRPRPRPDVLPRP the “shrunken log2 fold change” value was -0.104.
RRIRFRPPRLPRPRPRPKEQPRP was tested, and the “shrunken log2 fold change” value was -0.00277.
In the case of RRIRTRPPRLPRPRPRPAYTPRP, the “shrunken log2 fold change” value was -0.149.
RRIRERPPRLPRPRPRPQHDPRP was tested, and the “shrunken log2 fold change” value was -0.265.
In the case of RRIRCRPPRLPRPRPRPWRAPRP, the “shrunken log2 fold change” value was 0.0569.
With RRIRNRPPRLPRPRPRPISPPRP the “shrunken log2 fold change” value was -0.13.
With RRIRCRPPRLPRPRPRPSQEPRP the “shrunken log2 fold change” value was 0.0585.
For RRIRMRPPRLPRPRPRPTMWPRP, the “shrunken log2 fold change” value was 0.274.
With RRIRPRPPRLPRPRPRPGMWPRP the “shrunken log2 fold change” value was 0.303.
With RRIRVRPPRLPRPRPRPRCQPRP the “shrunken log2 fold change” value was 0.0744.
RRIRWRPPRLPRPRPRPREPPRP was tested, and the “shrunken log2 fold change” value was 0.35.
RRIRTRPPRLPRPRPRPMCRPRP was tested, and the “shrunken log2 fold change” value was -0.0404.
With RRIRTRPPRLPRPRPRPSFMPRP the “shrunken log2 fold change” value was -0.412.
For RRIRRRPPRLPRPRPRPTVCPRP, the “shrunken log2 fold change” value was 0.227.
For RRIRTRPPRLPRPRPRPREKPRP, the “shrunken log2 fold change” value was -0.00088.
RRIRLRPPRLPRPRPRPNQRPRP was tested, and the “shrunken log2 fold change” value was 0.00956.
For RRIRYRPPRLPRPRPRPPCDPRP, the “shrunken log2 fold change” value was -0.196.
With RRIRMRPPRLPRPRPRPEVIPRP the “shrunken log2 fold change” value was 0.0213.
For RRIRDRPPRLPRPRPRPFMRPRP, the “shrunken log2 fold change” value was 0.05.
With RRIRARPPRLPRPRPRPRWMPRP the “shrunken log2 fold change” value was 0.451.
In the case of RRIRIRPPRLPRPRPRPTAQPRP, the “shrunken log2 fold change” value was 0.154.
RRIRMRPPRLPRPRPRPENTPRP was tested, and the “shrunken log2 fold change” value was 0.427.
With RRIRDRPPRLPRPRPRPFIMPRP the “shrunken log2 fold change” value was -0.147.
For RRIRRRPPRLPRPRPRPVWQPRP, the “shrunken log2 fold change” value was 0.395.
In the case of RRIRNRPPRLPRPRPRPFEYPRP, the “shrunken log2 fold change” value was -0.266.
In the case of RRIRSRPPRLPRPRPRPDALPRP, the “shrunken log2 fold change” value was 0.353.
In the case of RRIRKRPPRLPRPRPRPMAQPRP, the “shrunken log2 fold change” value was -0.0932.
For RRIRWRPPRLPRPRPRPRASPRP, the “shrunken log2 fold change” value was 0.852.
For RRIRIRPPRLPRPRPRPRHQPRP, the “shrunken log2 fold change” value was -0.289.
RRIRLRPPRLPRPRPRPKHIPRP was tested, and the “shrunken log2 fold change” value was -0.241.
For RRIRRRPPRLPRPRPRPPIKPRP, the “shrunken log2 fold change” value was 0.14.
With RRIRKRPPRLPRPRPRPHHPPRP the “shrunken log2 fold change” value was -0.123.
With RRIRHRPPRLPRPRPRPMYPPRP the “shrunken log2 fold change” value was -0.304.

Reference: the supplement of paper PMC9112550, “Optimization of the antimicrobial peptide Bac7 by deep mutational scanning” (BMC Biology, 2022)
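Further: peptides expressed intracellularly from a pBAD plasmid library in pooled LB shake-flask culture, induced with 0.3% L-arabinose, DNA abundance read by NGS, three biological replicates, DESeq2 with apeglm shrinkage.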
